The text below walks through data of IntAct's records for PubMed 32433612.

The target in this assay is tasl_human TASL (UniProt Q9HAI6).

With “Solute carrier family 15 member 4 (Homo sapiens), Q8N697 E44A”, the “effect of a mutation on the interaction” value is recorded as “with no effect”.

As for “Solute carrier family 15 member 4 (Homo sapiens), Q8N697 E47A”, the “effect of a mutation on the interaction” value is “with no effect”.

“Solute carrier family 15 member 4 (Homo sapiens), Q8N697 E465A”: the “effect of a mutation on the interaction” value is listed as “disrupting interaction strength”.

For the substance “Solute carrier family 15 member 4 (Homo sapiens), Q8N697 E465K”, the “effect of a mutation on the interaction” value is “disrupting interaction strength”.

For “Solute carrier family 15 member 4 (Homo sapiens), Q8N697 L14A;L15A”, the “effect of a mutation on the interaction” value was “with no effect”.
